Experimental data: patent publication US20210139548A1 (published 2021)
*1 amine or outer side, *2 acyl side, *3 side chain or, on linkers, in order; H or OH if unused. Side-chain parts run from the residue outwards. The star is where a group is joined. C18 diacid = O=C(O)CCCCCCCCCCCCCCCCC(=O)*; γGlu = O=C(O)[C@H](CCC(=O)[*:2])N[*:1]; Isovaleryl = CC(C)CC(=O)*; AEEA = NCCOCCOCC(=O)O

T1: human neuropeptide Y2 receptor (human, UniProt P49146 1-381)
T1 construct: whole, on cells; also called hNPY2 receptor; hNPY2-R
T1 sequence (looked up): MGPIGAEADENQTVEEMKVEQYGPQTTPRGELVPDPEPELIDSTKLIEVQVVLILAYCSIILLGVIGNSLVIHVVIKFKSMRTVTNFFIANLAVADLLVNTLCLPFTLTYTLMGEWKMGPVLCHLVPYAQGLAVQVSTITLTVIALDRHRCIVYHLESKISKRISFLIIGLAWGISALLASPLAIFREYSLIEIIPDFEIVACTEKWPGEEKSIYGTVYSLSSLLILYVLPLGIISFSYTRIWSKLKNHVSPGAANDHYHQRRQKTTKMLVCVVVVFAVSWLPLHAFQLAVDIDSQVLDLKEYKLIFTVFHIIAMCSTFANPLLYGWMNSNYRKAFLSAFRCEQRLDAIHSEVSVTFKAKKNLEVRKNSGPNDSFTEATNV


Target: T1, human neuropeptide Y2 receptor
Test: radioligand competition (125I-PYY(1-36)), hNPY2R membranes
Summary of the method: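 Commercial human Y2 receptor membranes (0.5 μg protein/well) were incubated with peptide for 2 h at room temperature in 50 mM HEPES, 5 mM MgCl₂, 1 mM CaCl₂, pH 7.4, with 0.2% ovalbumin. Bound radioligand was separated on PEI-soaked GF/C filters and counted by scintillation, and IC₅₀ came from nonlinear sigmoidal regression.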

Binder	Ki [nM]
Isovaleryl-APEK([AEEA-AEEA-γGlu-C18 diacid])PEEDASPEEAQRYYVSLRHYYNWLTRQRY-NH2 (SMILES CC(C)CC(=O)N[C@@H](C)C(=O)N1CCC[C@H]1C(=O)N[C@@H](CCC(=O)O)C(=O)N[C@@H](CCCCNC(=O)COCCOCCNC(=O)COCCOCCNC(=O)CC[C@H](NC(=O)CCCCCCCCCCCCCCCCC(=O)O)C(=O)O)C(=O)N1CCC[C@H]1C(=O)N[C@@H](CCC(=O)O)C(=O)N[C@@H](CCC(=O)O)C(=O)N[C@@H](CC(=O)O)C(=O)N[C@@H](C)C(=O)N[C@@H](CO)C(=O)N1CCC[C@H]1C(=O)N[C@@H](CCC(=O)O)C(=O)N[C@@H](CCC(=O)O)C(=O)N[C@@H](C)C(=O)N[C@@H](CCC(N)=O)C(=O)N[C@@H](CCCNC(=N)N)C(=O)N[C@@H](Cc1ccc(O)cc1)C(=O)N[C@@H](Cc1ccc(O)cc1)C(=O)N[C@H](C(=O)N[C@@H](CO)C(=O)N[C@@H](CC(C)C)C(=O)N[C@@H](CCCNC(=N)N)C(=O)N[C@@H](Cc1c[nH]cn1)C(=O)N[C@@H](Cc1ccc(O)cc1)C(=O)N[C@@H](Cc1ccc(O)cc1)C(=O)N[C@@H](CC(N)=O)C(=O)N[C@@H](Cc1c[nH]c2ccccc12)C(=O)N[C@@H](CC(C)C)C(=O)N[C@H](C(=O)N[C@@H](CCCNC(=N)N)C(=O)N[C@@H](CCC(N)=O)C(=O)N[C@@H](CCCNC(=N)N)C(=O)N[C@@H](Cc1ccc(O)cc1)C(N)=O)[C@@H](C)O)C(C)C) [Compound 55]	3.35
Isovaleryl-APEK([AEEA-AEEA-γGlu-C18 diacid])PEADAEPEELQRYYVSLRHYYNWLTRQRY-NH2 (SMILES CC(C)CC(=O)N[C@@H](C)C(=O)N1CCC[C@H]1C(=O)N[C@@H](CCC(=O)O)C(=O)N[C@@H](CCCCNC(=O)COCCOCCNC(=O)COCCOCCNC(=O)CC[C@H](NC(=O)CCCCCCCCCCCCCCCCC(=O)O)C(=O)O)C(=O)N1CCC[C@H]1C(=O)N[C@@H](CCC(=O)O)C(=O)N[C@@H](C)C(=O)N[C@@H](CC(=O)O)C(=O)N[C@@H](C)C(=O)N[C@@H](CCC(=O)O)C(=O)N1CCC[C@H]1C(=O)N[C@@H](CCC(=O)O)C(=O)N[C@@H](CCC(=O)O)C(=O)N[C@@H](CC(C)C)C(=O)N[C@@H](CCC(N)=O)C(=O)N[C@@H](CCCNC(=N)N)C(=O)N[C@@H](Cc1ccc(O)cc1)C(=O)N[C@@H](Cc1ccc(O)cc1)C(=O)N[C@H](C(=O)N[C@@H](CO)C(=O)N[C@@H](CC(C)C)C(=O)N[C@@H](CCCNC(=N)N)C(=O)N[C@@H](Cc1c[nH]cn1)C(=O)N[C@@H](Cc1ccc(O)cc1)C(=O)N[C@@H](Cc1ccc(O)cc1)C(=O)N[C@@H](CC(N)=O)C(=O)N[C@@H](Cc1c[nH]c2ccccc12)C(=O)N[C@@H](CC(C)C)C(=O)N[C@H](C(=O)N[C@@H](CCCNC(=N)N)C(=O)N[C@@H](CCC(N)=O)C(=O)N[C@@H](CCCNC(=N)N)C(=O)N[C@@H](Cc1ccc(O)cc1)C(N)=O)[C@@H](C)O)C(C)C) [Compound 56]	1.26
Isovaleryl-APEK([AEEA-AEEA-γGlu-C18 diacid])PEEDASPEELQRYYVSLRAYYNWLTRQRY-NH2 (SMILES CC(C)CC(=O)N[C@@H](C)C(=O)N1CCC[C@H]1C(=O)N[C@@H](CCC(=O)O)C(=O)N[C@@H](CCCCNC(=O)COCCOCCNC(=O)COCCOCCNC(=O)CC[C@H](NC(=O)CCCCCCCCCCCCCCCCC(=O)O)C(=O)O)C(=O)N1CCC[C@H]1C(=O)N[C@@H](CCC(=O)O)C(=O)N[C@@H](CCC(=O)O)C(=O)N[C@@H](CC(=O)O)C(=O)N[C@@H](C)C(=O)N[C@@H](CO)C(=O)N1CCC[C@H]1C(=O)N[C@@H](CCC(=O)O)C(=O)N[C@@H](CCC(=O)O)C(=O)N[C@@H](CC(C)C)C(=O)N[C@@H](CCC(N)=O)C(=O)N[C@@H](CCCNC(=N)N)C(=O)N[C@@H](Cc1ccc(O)cc1)C(=O)N[C@@H](Cc1ccc(O)cc1)C(=O)N[C@H](C(=O)N[C@@H](CO)C(=O)N[C@@H](CC(C)C)C(=O)N[C@@H](CCCNC(=N)N)C(=O)N[C@@H](C)C(=O)N[C@@H](Cc1ccc(O)cc1)C(=O)N[C@@H](Cc1ccc(O)cc1)C(=O)N[C@@H](CC(N)=O)C(=O)N[C@@H](Cc1c[nH]c2ccccc12)C(=O)N[C@@H](CC(C)C)C(=O)N[C@H](C(=O)N[C@@H](CCCNC(=N)N)C(=O)N[C@@H](CCC(N)=O)C(=O)N[C@@H](CCCNC(=N)N)C(=O)N[C@@H](Cc1ccc(O)cc1)C(N)=O)[C@@H](C)O)C(C)C) [Compound 63]	3.13
Isovaleryl-APEK([AEEA-AEEA-γGlu-C18 diacid])PPEDASPEEIQRYYVSLRHYYNWLTRQRY-NH2 (SMILES CC[C@H](C)[C@H](NC(=O)[C@H](CCC(=O)O)NC(=O)[C@H](CCC(=O)O)NC(=O)[C@@H]1CCCN1C(=O)[C@H](CO)NC(=O)[C@H](C)NC(=O)[C@H](CC(=O)O)NC(=O)[C@H](CCC(=O)O)NC(=O)[C@@H]1CCCN1C(=O)[C@@H]1CCCN1C(=O)[C@H](CCCCNC(=O)COCCOCCNC(=O)COCCOCCNC(=O)CC[C@H](NC(=O)CCCCCCCCCCCCCCCCC(=O)O)C(=O)O)NC(=O)[C@H](CCC(=O)O)NC(=O)[C@@H]1CCCN1C(=O)[C@H](C)NC(=O)CC(C)C)C(=O)N[C@@H](CCC(N)=O)C(=O)N[C@@H](CCCNC(=N)N)C(=O)N[C@@H](Cc1ccc(O)cc1)C(=O)N[C@@H](Cc1ccc(O)cc1)C(=O)N[C@H](C(=O)N[C@@H](CO)C(=O)N[C@@H](CC(C)C)C(=O)N[C@@H](CCCNC(=N)N)C(=O)N[C@@H](Cc1c[nH]cn1)C(=O)N[C@@H](Cc1ccc(O)cc1)C(=O)N[C@@H](Cc1ccc(O)cc1)C(=O)N[C@@H](CC(N)=O)C(=O)N[C@@H](Cc1c[nH]c2ccccc12)C(=O)N[C@@H](CC(C)C)C(=O)N[C@H](C(=O)N[C@@H](CCCNC(=N)N)C(=O)N[C@@H](CCC(N)=O)C(=O)N[C@@H](CCCNC(=N)N)C(=O)N[C@@H](Cc1ccc(O)cc1)C(N)=O)[C@@H](C)O)C(C)C) [Compound 61]	0.4
Isovaleryl-APEK([AEEA-AEEA-γGlu-C18 diacid])PEEAASPEELEQYYVSLRHYYNWLTRQRY-NH2 (SMILES CC(C)CC(=O)N[C@@H](C)C(=O)N1CCC[C@H]1C(=O)N[C@@H](CCC(=O)O)C(=O)N[C@@H](CCCCNC(=O)COCCOCCNC(=O)COCCOCCNC(=O)CC[C@H](NC(=O)CCCCCCCCCCCCCCCCC(=O)O)C(=O)O)C(=O)N1CCC[C@H]1C(=O)N[C@@H](CCC(=O)O)C(=O)N[C@@H](CCC(=O)O)C(=O)N[C@@H](C)C(=O)N[C@@H](C)C(=O)N[C@@H](CO)C(=O)N1CCC[C@H]1C(=O)N[C@@H](CCC(=O)O)C(=O)N[C@@H](CCC(=O)O)C(=O)N[C@@H](CC(C)C)C(=O)N[C@@H](CCC(=O)O)C(=O)N[C@@H](CCC(N)=O)C(=O)N[C@@H](Cc1ccc(O)cc1)C(=O)N[C@@H](Cc1ccc(O)cc1)C(=O)N[C@H](C(=O)N[C@@H](CO)C(=O)N[C@@H](CC(C)C)C(=O)N[C@@H](CCCNC(=N)N)C(=O)N[C@@H](Cc1c[nH]cn1)C(=O)N[C@@H](Cc1ccc(O)cc1)C(=O)N[C@@H](Cc1ccc(O)cc1)C(=O)N[C@@H](CC(N)=O)C(=O)N[C@@H](Cc1c[nH]c2ccccc12)C(=O)N[C@@H](CC(C)C)C(=O)N[C@H](C(=O)N[C@@H](CCCNC(=N)N)C(=O)N[C@@H](CCC(N)=O)C(=O)N[C@@H](CCCNC(=N)N)C(=O)N[C@@H](Cc1ccc(O)cc1)C(N)=O)[C@@H](C)O)C(C)C) [Compound 60]	5.95
